One molecule from PMC8053115 can be followed below.

The target in this series is T1, NP C-terminal tail peptide (Influenza A virus A/HK/483/97 (H5N1), UniProt Q9PX50).
T1 chain: DNAEEYDN
Put plainly: MST.

For the molecule UUUUUUUUU (XNA, 2'-O-methyl) [Cy5 9-mer poly-uridine RNA], the binding result is recorded as “no binding”.
